{"source": "patent US20190177366A1", "about": "(published 2019)", "binders": {"B1": {"name": "Compound 57 (peptide)", "peptide": "Ac-DLMPWNLVRIALLR-NH2"}, "B2": {"name": "Compound 53 (peptide)", "peptide": "Ac-WNLVRIGLLR-NH2"}, "B3": {"name": "Phage-displayed Pep2-8 (on p8) (peptide)", "chain": "TVFTSWEEYLDWV", "notes": "Peptide fused to the N-terminus of p8 on M13 phage; also called phage displaying Pep2-8; not shown: M13 major coat protein p8"}, "B4": {"name": "Compound 108 (peptide)", "peptide": "Ac-CR[dL]PWNLQRIGLPC-NH2", "modifications": "disulfide 1-14", "SMILES": "CC[C@H](C)[C@@H]1NC(=O)[C@H](CCCNC(=N)N)NC(=O)[C@H](CCC(N)=O)NC(=O)[C@H](CC(C)C)NC(=O)[C@H](CC(N)=O)NC(=O)[C@H](Cc2c[nH]c3ccccc23)NC(=O)[C@@H]2CCCN2C(=O)[C@@H](CC(C)C)NC(=O)[C@H](CCCNC(=N)N)NC(=O)[C@@H](NC(C)=O)CSSC[C@@H](C(N)=O)NC(=O)[C@@H]2CCCN2C(=O)[C@H](CC(C)C)NC(=O)CNC1=O"}, "B5": {"name": "Compound 109 (peptide)", "peptide": "Ac-C[dR]LPWNLQRIGLPC-NH2", "modifications": "disulfide 1-14", "SMILES": "CC[C@H](C)[C@@H]1NC(=O)[C@H](CCCNC(=N)N)NC(=O)[C@H](CCC(N)=O)NC(=O)[C@H](CC(C)C)NC(=O)[C@H](CC(N)=O)NC(=O)[C@H](Cc2c[nH]c3ccccc23)NC(=O)[C@@H]2CCCN2C(=O)[C@H](CC(C)C)NC(=O)[C@@H](CCCNC(=N)N)NC(=O)[C@@H](NC(C)=O)CSSC[C@@H](C(N)=O)NC(=O)[C@@H]2CCCN2C(=O)[C@H](CC(C)C)NC(=O)CNC1=O"}, "B6": {"name": "Compound 122 (peptide)", "peptide": "Ac-SGDLMPWNLVRIGLLR-NH2"}, "B7": {"name": "K9gvpep4 (peptide)", "peptide": "SGCRLPWNLQRIGLPC", "modifications": "not fully specified (bridges); cysteine pairing not given here", "notes": "Synthetic peptide"}, "B8": {"name": "Compound 192 (peptide)", "peptide": "Ac-WNLV[hArg]IGLLR-NH2", "notes": "Ac-WNLV(homoR)IGLLR-NH2"}}, "key": {"[1]": {"target": "T1, human PCSK9 (proprotein convertase subtilisin/kexin type 9), His-tagged, full-length (human, UniProt A8T644 31-152; Q8NBP7 153-692, limits assumed)", "T1 construct": "The secreted protein is the prodomain plus the catalytic/Cys-rich part (N-terminus S153) after autocleavage; also called His-PCSK9; NARC-1", "T1 sequence (A8T644 31-152 limits assumed, chain 1 of 2)": "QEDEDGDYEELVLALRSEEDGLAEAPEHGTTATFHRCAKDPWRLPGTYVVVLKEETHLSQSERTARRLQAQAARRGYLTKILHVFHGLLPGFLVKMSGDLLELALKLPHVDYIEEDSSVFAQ", "T1 sequence (A8T644 other isoform, or with tags, fused parts or gaps limits assumed, chain 2 of 2)": "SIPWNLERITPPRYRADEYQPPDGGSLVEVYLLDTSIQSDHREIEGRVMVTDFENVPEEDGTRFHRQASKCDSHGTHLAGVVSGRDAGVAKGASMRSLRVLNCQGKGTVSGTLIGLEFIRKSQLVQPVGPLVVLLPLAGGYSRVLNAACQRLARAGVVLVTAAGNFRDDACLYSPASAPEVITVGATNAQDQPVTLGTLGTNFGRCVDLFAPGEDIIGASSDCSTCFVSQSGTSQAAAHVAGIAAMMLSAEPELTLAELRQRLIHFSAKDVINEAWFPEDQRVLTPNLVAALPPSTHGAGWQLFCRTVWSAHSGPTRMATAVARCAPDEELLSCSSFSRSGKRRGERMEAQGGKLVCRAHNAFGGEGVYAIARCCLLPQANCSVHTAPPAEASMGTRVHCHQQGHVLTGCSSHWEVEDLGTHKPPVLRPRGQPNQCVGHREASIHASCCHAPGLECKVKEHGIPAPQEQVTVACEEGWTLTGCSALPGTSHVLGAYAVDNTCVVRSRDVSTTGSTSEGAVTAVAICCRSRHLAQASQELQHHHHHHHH", "assay": "TR-FRET competition vs EGF(A)-Fc on His-PCSK9"}, "[2]": {"target": "T2, PCSK9Δhelix (human PCSK9 lacking the P' helix, His-tagged) (human, UniProt Q8NBP7 31-152; Q8NBP7 168-692)", "T2 construct": "Construct M1-Q692 with engineered TEV site (Y166, R167 deleted, ENLYFQS inserted between R165 and A168), cleaved by TEV protease; new N-terminus of the catalytic domain is S-A168; also called His-PCSK9Δhelix", "T2 sequence (Q8NBP7 31-152, stated change not applied, chain 1 of 2)": "as the sequence (A8T644 31-152 limits assumed, chain 1 of 2) above", "T2 sequence (Q8NBP7 other isoform, or with tags, fused parts or gaps mutant, chain 2 of 2)": "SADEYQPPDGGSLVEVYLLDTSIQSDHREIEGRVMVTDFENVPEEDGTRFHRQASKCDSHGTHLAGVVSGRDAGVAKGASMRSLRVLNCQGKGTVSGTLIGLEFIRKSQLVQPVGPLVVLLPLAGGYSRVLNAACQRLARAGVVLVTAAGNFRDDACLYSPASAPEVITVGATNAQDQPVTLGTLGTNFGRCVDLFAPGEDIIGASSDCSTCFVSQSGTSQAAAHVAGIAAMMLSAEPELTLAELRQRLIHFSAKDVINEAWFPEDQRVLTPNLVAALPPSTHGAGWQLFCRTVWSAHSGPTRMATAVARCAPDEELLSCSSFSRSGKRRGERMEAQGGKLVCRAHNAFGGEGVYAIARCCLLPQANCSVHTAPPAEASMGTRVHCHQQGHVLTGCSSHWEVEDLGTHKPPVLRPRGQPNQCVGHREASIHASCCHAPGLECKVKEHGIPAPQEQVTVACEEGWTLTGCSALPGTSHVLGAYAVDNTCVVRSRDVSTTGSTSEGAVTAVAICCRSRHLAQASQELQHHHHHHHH", "assay": "TR-FRET competition vs Ab20 on His-PCSK9Δhelix"}, "[3]": {"target": "T3, PCSK9Δhelix (human, UniProt Q8NBP7 31-152)", "T3 construct": "domain: prodomain; Construct M1-Q692 with engineered TEV site, cut with TEV; His-tagged (tag not written as a part); also called His-PCSK9Δhelix; open groove PCSK9Δhelix", "T3 sequence (Q8NBP7 31-152 limits assumed, stated change not applied, form in doubt, chain 1 of 2)": "as the sequence (A8T644 31-152 limits assumed, chain 1 of 2) above", "T3 sequence (Q8NBP7 other isoform, or with tags, fused parts or gaps mutant limits assumed, form in doubt, chain 2 of 2)": "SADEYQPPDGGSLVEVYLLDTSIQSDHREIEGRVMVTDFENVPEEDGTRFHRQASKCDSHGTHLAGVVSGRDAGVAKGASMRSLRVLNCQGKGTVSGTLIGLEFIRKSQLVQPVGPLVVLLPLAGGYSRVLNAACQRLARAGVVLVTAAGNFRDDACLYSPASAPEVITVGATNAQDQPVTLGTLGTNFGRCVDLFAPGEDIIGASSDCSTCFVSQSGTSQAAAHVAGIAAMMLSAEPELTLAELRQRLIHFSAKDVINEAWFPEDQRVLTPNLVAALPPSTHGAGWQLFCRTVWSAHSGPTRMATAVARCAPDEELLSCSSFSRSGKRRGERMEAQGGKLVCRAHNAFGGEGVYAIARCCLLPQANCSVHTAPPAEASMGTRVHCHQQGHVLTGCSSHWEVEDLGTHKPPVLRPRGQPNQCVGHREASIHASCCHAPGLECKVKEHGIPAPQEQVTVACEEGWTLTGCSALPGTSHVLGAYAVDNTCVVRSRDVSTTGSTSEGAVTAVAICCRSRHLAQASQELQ", "assay": "SPR"}, "[4]": {"target": "T4, proprotein convertase subtilisin/kexin type 9 (PCSK9) (human, UniProt Q8NBP7 31-152)", "T4 construct": "domain: prodomain; Recombinant; tag not written as a part; also called rec.PCSK9; His-PCSK9", "T4 sequence (Q8NBP7 31-152 limits assumed, chain 1 of 2)": "as the sequence (A8T644 31-152 limits assumed, chain 1 of 2) above", "T4 sequence (Q8NBP7 153-692 limits assumed, chain 2 of 2)": "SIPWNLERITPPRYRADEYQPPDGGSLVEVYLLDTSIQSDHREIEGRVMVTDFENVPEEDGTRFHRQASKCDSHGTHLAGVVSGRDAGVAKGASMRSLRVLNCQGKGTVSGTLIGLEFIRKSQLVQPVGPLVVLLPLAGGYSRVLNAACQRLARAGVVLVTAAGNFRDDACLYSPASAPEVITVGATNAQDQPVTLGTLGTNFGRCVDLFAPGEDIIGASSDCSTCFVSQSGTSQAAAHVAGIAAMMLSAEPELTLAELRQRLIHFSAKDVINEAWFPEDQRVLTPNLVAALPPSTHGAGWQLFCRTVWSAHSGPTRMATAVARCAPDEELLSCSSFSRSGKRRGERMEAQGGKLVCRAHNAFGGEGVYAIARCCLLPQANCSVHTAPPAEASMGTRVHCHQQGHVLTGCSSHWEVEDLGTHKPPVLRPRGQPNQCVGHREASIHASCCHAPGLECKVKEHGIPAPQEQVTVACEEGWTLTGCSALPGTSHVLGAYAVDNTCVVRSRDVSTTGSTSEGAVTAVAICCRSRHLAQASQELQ", "assay": "phage ELISA"}, "[5]": {"target": "T5, His-tagged PCSK9Δhelix (human, UniProt Q8NBP7 31-152; Q8NBP7 168-692)", "T5 construct": "Human PCSK9 M1-Q692 with engineered TEV site, cleaved by TEV protease; Target protein of the PCSK9Δhelix/Ab20 TR-FRET assay (1.25 nM); also called His-PCSK9Δhelix", "T5 sequence (Q8NBP7 31-152, stated change not applied, chain 1 of 2)": "as the sequence (A8T644 31-152 limits assumed, chain 1 of 2) above", "T5 sequence (Q8NBP7 other isoform, or with tags, fused parts or gaps mutant, chain 2 of 2)": "as the sequence (Q8NBP7 other isoform, or with tags, fused parts or gaps mutant, chain 2 of 2) above", "assay": "TR-FRET competition; competitor Ab20 on His-PCSK9Δhelix"}, "[6]": {"target": "T6, His-tagged, full-length PCSK9 (human, UniProt A8T644 31-152; Q8NBP7 153-692)", "T6 construct": "Target protein of the PCSK9/EGF(A) TR-FRET assay (10 nM); also called His-PCSK9; proprotein convertase subtilisin/kexin type 9", "T6 sequence (A8T644 31-152 limits assumed, chain 1 of 2)": "as the sequence (A8T644 31-152 limits assumed, chain 1 of 2) above", "T6 sequence (A8T644 other isoform, or with tags, fused parts or gaps limits assumed, chain 2 of 2)": "as the sequence (A8T644 other isoform, or with tags, fused parts or gaps limits assumed, chain 2 of 2) above", "assay": "TR-FRET competition; competitor EGF(A)-Fc on His-PCSK9"}, "[7]": {"target": "T7, His-tagged, full-length PCSK9 (human, UniProt Q8NBP7 31-152; Q8NBP7 153-692)", "T7 construct": "Target protein of the PCSK9/EGF(A) TR-FRET assay (10 nM); also called His-PCSK9", "T7 sequence (Q8NBP7 31-152, chain 1 of 2)": "as the sequence (A8T644 31-152 limits assumed, chain 1 of 2) above", "T7 sequence (Q8NBP7 other isoform, or with tags, fused parts or gaps, chain 2 of 2)": "as the sequence (A8T644 other isoform, or with tags, fused parts or gaps limits assumed, chain 2 of 2) above", "assay": "TR-FRET competition, His-PCSK9; competitor EGF(A)-Fc"}, "[8]": {"target": "T4, proprotein convertase subtilisin/kexin …", "assay": "phage competition ELISA"}}, "note": "Bridge positions count the residues as written; N and C are the ends. Square brackets hold non-standard residues; d marks the D form. Ends that are not written are not given here. hArg = N=C(N)NCCCC[C@H](N)C(=O)O"}
{"binder": "B1", "values": [{"measurement": "IC50", "setting": "[1]", "result": "> 50", "unit": "µM"}, {"measurement": "IC50", "setting": "[2]", "result": 49.5, "unit": "µM"}]}
{"binder": "B2", "values": [{"measurement": "fold reduction of binding affinity against Compound 35", "setting": "[3]", "result": 10, "unit": "fold"}]}
{"binder": "B3", "values": [{"measurement": "binding result", "setting": "[4]", "result": "binds"}]}
{"binder": "B4", "values": [{"measurement": "IC50", "setting": "[5]", "result": 28.2, "unit": "µM"}, {"measurement": "IC50", "setting": "[6]", "result": "> 50", "unit": "µM"}]}
{"binder": "B5", "values": [{"measurement": "IC50", "setting": "[5]", "result": 1.67, "unit": "µM"}, {"measurement": "IC50", "setting": "[6]", "result": "> 50", "unit": "µM"}]}
{"binder": "B6", "values": [{"measurement": "IC50", "setting": "[7]", "result": "≥ 50", "unit": "µM"}]}
{"binder": "B7", "values": [{"measurement": "binding result", "setting": "[8]", "result": "binds"}]}
{"binder": "B8", "values": [{"measurement": "fold improvement of binding affinity against Compound 53", "setting": "[3]", "result": 14, "unit": "fold"}]}
